Values quoted from earlier work in article PMC4134939.
pKd: −log10 of the molar value.

Biological target: ubiquitin (Homo sapiens) (UniProt P0CG47)

Sequence of DNA polymerase iota UBM1 (Q9UNA4 513-557): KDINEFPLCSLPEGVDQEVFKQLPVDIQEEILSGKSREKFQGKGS

Substance: DNA polymerase iota UBM1 (from UniProt Q9UNA4)
- pKd: 3.89
